Assay results reported in publication PMC3823767, “The ATP-Mediated Regulation of KaiB-KaiC Interaction in the Cyanobacterial Circadian Clock” (PLoS ONE, 2013).

B3: KaiC_(S431D&T432D) (KaiCDD) (natural protein, UniProt Q79V60 1-518, looked up)
chain: MTNLPEHQSSPTEQSSAEVKKIPTMIEGFDDISHGGLPQGRTTLVSGTSGTGKTLFAVQFLYNGITIFNEPGIFVTFEESPQDIIKNALSFGWNLQSLIDQGKLFILDASPDPDGQEVAGDFDLSALIERIQYAIRKYKATRVSIDSVTAVFQQYDAASVVRREIFRLAFRLKQLGVTTIMTTERVDEYGPVARFGVEEFVSDNVVILRNVLEGERRRRTVEILKLRGTTHMKGEYPFTINNGINIFPLGAMRLTQRSSNVRVSSGVKTLDEMCGGGFFKDSIILATGATGTGKTLLVSKFLETGCQQGERALLFAYEESRAQLSRNASSWGIDFEELERRGLLRIICAYPESAGLEDHLQIIKSEIADFKPSRVAIDSLSALARGVSNNAFRQFVIGVTGFAKQEEITGFFTNTTDQFMGSNSITESHIDDITDTILLLQYVEIRGEMSRAINVFKMRGSWHDKGIREYVITEKGAEIRDSFRNFEGIISGTPTRISVDEKTELARIAKGMQDLESE
notes: KaiC, Thermosynechococcus elongatus BP-1, subunit of 518 amino acid residues, aspartate at the two phosphorylation sites; Used as monomer (KaiC^1mer, no ATP) and as hexamer (KaiC^6mer; with Mg-ATP, ATP, Mg-AMPPNP, Mg-ATPγS or Mg-ADP-AlFx); the assay tells which; also called KaiCDD^1mer; KaiCDD^6mer
B4: N-terminal domain mutant protein of KaiC, residues 1 to 268 (KaiCN) (domain or fragment, UniProt Q79V60 1-268, looked up)
chain: MTNLPEHQSSPTEQSSAEVKKIPTMIEGFDDISHGGLPQGRTTLVSGTSGTGKTLFAVQFLYNGITIFNEPGIFVTFEESPQDIIKNALSFGWNLQSLIDQGKLFILDASPDPDGQEVAGDFDLSALIERIQYAIRKYKATRVSIDSVTAVFQQYDAASVVRREIFRLAFRLKQLGVTTIMTTERVDEYGPVARFGVEEFVSDNVVILRNVLEGERRRRTVEILKLRGTTHMKGEYPFTINNGINIFPLGAMRLTQRSSNVRVSSGVK
notes: KaiC, Thermosynechococcus elongatus BP-1, N-terminal domain, residues 1-268; Used as monomer (no ATP) and as hexamer (with ATP or Mg-ATP); the assay tells which; also called KaiCN^1mer; KaiCN^6mer

Experiments:
[1] = target: B3; assay: native gel or EMSA; KaiBWT (1 μM) or KaiB1-94 (2 μM) with 1 μM KaiCDD hexamer in reaction buffer (20 mM HEPES-NaOH pH 7.5, 150 mM NaCl) with Mg-ATP at 40 °C, time course; 10 % native gel, CBB, densitometry; conditions: both partners purified
[2] = target: B3; assay: native gel or EMSA; monomeric KaiC (5 μM; 1 μM for the concentration series) with KaiB1-94 or 7.5 μM KaiBWT in reaction buffer without ATP, 4 °C, 6 h (KaiC_(C/DD) also at 25 °C); 10 % native gel, CBB, densitometry; conditions: both partners purified
KaiC_(K53H/DD) = target: T1, KaiC_(K53H/DD) (Thermosynechococcus elongatus BP-1 …, UniProt Q79V60 1-518, K53H | S431D | T432D); assay: as above; conditions: both partners purified
T1 construct: KaiC, Thermosynechococcus elongatus BP-1, 518 residues, K53H in the N-terminal Walker's motif A plus the DD mutation; Used as monomer (no ATP) and as hexamer (with Mg-ATP); the assay tells which; also called KaiC_(K53H/DD)^1mer; KaiC_(K53H/DD)^6mer
T1 sequence (looked up): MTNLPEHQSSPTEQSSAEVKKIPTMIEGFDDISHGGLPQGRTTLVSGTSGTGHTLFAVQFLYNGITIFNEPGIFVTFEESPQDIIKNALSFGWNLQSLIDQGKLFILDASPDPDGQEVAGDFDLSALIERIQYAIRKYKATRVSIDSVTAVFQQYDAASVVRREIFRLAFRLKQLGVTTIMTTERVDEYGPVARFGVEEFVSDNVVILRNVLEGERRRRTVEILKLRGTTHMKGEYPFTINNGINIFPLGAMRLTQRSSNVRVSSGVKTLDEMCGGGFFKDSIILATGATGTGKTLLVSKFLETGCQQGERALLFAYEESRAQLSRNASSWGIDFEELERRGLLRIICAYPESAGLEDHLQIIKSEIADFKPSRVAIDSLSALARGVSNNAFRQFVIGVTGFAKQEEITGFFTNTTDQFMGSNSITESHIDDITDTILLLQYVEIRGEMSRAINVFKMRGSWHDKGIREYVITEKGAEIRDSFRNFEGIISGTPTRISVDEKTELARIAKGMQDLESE

KaiC_(K294H/DD) = target: T2, KaiC_(K294H/DD) (Thermosynechococcus elongatus BP-1 …, UniProt Q79V60 1-518, K294H | S431D | T432D); assay: as above; conditions: both partners purified
T2 construct: KaiC, Thermosynechococcus elongatus BP-1, 518 residues, K294H in Walker's motif A (C-terminal ATPase motif mutation by the results) plus the DD mutation; Used as monomer (no ATP) and as hexamer (with Mg-ATP); the assay tells which; also called KaiC_(K294H/DD)^1mer; KaiC_(K294H/DD)^6mer
T2 sequence (looked up): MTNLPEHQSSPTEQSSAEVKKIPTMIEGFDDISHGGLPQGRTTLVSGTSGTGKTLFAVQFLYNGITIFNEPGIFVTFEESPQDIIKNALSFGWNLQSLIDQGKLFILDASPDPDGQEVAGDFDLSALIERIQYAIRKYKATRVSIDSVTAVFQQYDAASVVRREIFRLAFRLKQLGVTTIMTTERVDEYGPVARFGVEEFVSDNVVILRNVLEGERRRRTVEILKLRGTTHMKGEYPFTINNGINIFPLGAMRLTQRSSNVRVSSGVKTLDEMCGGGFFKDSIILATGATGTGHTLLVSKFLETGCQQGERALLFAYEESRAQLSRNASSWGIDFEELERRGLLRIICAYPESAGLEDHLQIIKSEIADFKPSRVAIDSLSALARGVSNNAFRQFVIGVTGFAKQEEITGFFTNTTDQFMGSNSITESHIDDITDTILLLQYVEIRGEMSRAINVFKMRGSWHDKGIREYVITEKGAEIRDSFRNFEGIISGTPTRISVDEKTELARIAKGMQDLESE

[3] = target: B4; assay: as above; conditions: both partners purified
KaiC_(K294H) = target: T3, KaiC_(K294H) (Thermosynechococcus elongatus BP-1 …, UniProt Q79V60 1-518, K294H); assay: native gel or EMSA; KaiC hexamer (formed with Mg-ATP, 1 μM) with 5 μM KaiB1-94 in the presence of Mg-ATP at 4 °C; native PAGE, complex bands checked by second-dimension SDS-PAGE; conditions: both partners purified
T3 construct: KaiC, Thermosynechococcus elongatus BP-1, 518 residues, K294H in Walker's motif A of the C-terminal domain; Used as hexamer formed with Mg-ATP; also called KaiC_(K294H)^6mer
T3 sequence (looked up): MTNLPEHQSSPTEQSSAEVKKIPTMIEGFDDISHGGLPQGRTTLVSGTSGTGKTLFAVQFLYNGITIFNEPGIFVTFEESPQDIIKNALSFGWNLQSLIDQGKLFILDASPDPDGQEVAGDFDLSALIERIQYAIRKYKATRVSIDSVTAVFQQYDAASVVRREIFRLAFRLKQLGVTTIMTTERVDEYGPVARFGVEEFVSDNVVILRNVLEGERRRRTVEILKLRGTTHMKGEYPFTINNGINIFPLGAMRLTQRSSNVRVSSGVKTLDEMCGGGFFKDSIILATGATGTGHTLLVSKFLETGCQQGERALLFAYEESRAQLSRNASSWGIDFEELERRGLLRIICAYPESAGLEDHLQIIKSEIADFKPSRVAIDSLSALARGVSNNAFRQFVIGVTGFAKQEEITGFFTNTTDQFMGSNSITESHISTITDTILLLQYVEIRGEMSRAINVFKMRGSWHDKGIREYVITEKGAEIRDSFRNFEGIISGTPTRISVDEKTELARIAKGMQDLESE

wild-type KaiC (KaiCWT) = target: T4, wild-type KaiC (KaiCWT) (Thermosynechococcus elongatus BP-1 …, UniProt Q79V60 1-518, phosphorylation level of the KaiCWT preparations about 30 % (phosphorylation sites Ser431 and Thr432)); assay: as above; conditions: both partners purified
T4 construct: KaiC, Thermosynechococcus elongatus BP-1, wild type, subunit of 518 amino acid residues; Used as hexamer formed with Mg-ATP; also called KaiCWT^6mer
T4 sequence (looked up): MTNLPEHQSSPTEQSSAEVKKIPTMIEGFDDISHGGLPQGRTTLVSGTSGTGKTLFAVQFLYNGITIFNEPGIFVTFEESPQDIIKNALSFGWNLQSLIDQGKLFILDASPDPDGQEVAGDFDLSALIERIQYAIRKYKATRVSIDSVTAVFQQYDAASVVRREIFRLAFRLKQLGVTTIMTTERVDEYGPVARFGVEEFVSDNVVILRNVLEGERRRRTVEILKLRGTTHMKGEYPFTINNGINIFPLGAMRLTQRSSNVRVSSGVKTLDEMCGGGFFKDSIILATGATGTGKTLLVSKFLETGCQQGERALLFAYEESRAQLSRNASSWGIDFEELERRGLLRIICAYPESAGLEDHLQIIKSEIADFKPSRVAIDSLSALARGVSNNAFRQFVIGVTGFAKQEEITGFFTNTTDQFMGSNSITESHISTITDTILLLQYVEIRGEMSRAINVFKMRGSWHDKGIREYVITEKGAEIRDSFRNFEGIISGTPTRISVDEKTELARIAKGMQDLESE

[4] = target: the molecule itself; assay: native gel or EMSA; 5 μM monomeric KaiC incubated with 1 mM ATP with or without 5 mM MgCl2 at 4 °C; monomer to hexamer

B1: wild-type KaiB (KaiBWT) (natural protein, UniProt Q79V61 1-108, looked up)
chain: MAPLRKTYVLKLYVAGNTPNSVRALKTLNNILEKEFKGVYALKVIDVLKNPQLAEEDKILATPTLAKVLPPPVRRIIGDLSNREKVLIGLDLLYEEIGDQAEDDLGLE
notes: KaiB, Thermosynechococcus elongatus BP-1, wild type, subunit of 108 amino acid residues; also called KaiBWT^4mer; KaiB^4mer
B1: binds [1].

B2: mutant KaiB with a C-terminal deletion of residues 95 to 108 (KaiB1-94) (domain or fragment, UniProt Q79V61 1-94, looked up)
chain: MAPLRKTYVLKLYVAGNTPNSVRALKTLNNILEKEFKGVYALKVIDVLKNPQLAEEDKILATPTLAKVLPPPVRRIIGDLSNREKVLIGLDLLY
notes: KaiB, Thermosynechococcus elongatus BP-1, residues 1-94 (C-terminal residues 95-108 deleted)
For B2, the “t1/2 of complex formation” value [1] was 1.2 h, the EC50 [2] was about 700 nM and the “t1/2 of complex formation” value [2] was about 2.5 h. B2: binds (KaiC_(K53H/DD)); binds (KaiC_(K294H/DD)); binds [3]. B2: binds (KaiC_(K294H)); binds (wild-type KaiC (KaiCWT)).

For B3, the “stoichiometry N” value [4] was 6.

B4 was tested, and the “stoichiometry N” value [4] was 6.
